According to US4137307A, “Process for preparing haptoglobin aqueous solution using strong anion exchanger” (The Green Cross Corporation, priority 1973, dated 1979):
One block for each compound: values may come before it.

Key:
hemoglobin [1] = experiment: Residual hemoglobin-binding capacity of haptoglobin after heat treatment (60° C., 10 hours); type: physicochemical; settings: dialysate of Example 3
hemoglobin [2] = experiment: as above; type: physicochemical; settings: for Residual hemoglobin-binding capacity of haptoglobin after heat treatment: haptoglobin solution of Example 1, 60° C., 10 hours
Method: In this example, the relation between the amount used and the stabilizing effects of various stabilizers was examined by measuring the residual hemoglobin-binding capacity of haptoglobin after heat treatment.
The stabilizers used were glycine and alanine as neutral amino acids, and mannitol and glucose as saccharides. Each of the said stabilizers was dissolved in haptoglobin solution in such proportions as shown in Table 7 and then heated at 60° C. for 10 hours. Thereafter, the hemoglobin-binding capacity of the haptoglobin of the solution was measured, and the ratio thereof to the value before heat treatment represented by percentage.
For comparison, the haptoglobin solution without addition of stabilizer was subjected to the same heat treatment as above, and the hemoglobin-binding capacity of haptoglobin of the solution was measured.

[3] = tested on: arterial blood pressure of the dog; experiment: Hypotensive activity (arterial blood pressure of the dog before and after administration); type: in vivo; settings: less than 10% evaluated as hypotensive activity negative
Method: (§1) The acute toxicity was represented by LD50 measured when the aqueous haptoglobin solution was intravenously injected into mice and rats. The hypotensive activity was represented by the ratio of arterial blood pressure of the dog before and after administration of haptoglobin solution. A ratio less than 10% was evaluated as hypotensive activity negative. The measurement of HB-Ag was made by the radioimmunoassay method (Sadatake Kato et al.: Japanese Patent Publication No. 49,919/73) using Ausria-125 kit, products of Abbott Co.

HB-Ag = HB-Ag measurement by radioimmunoassay (Ausria-125 kit); design: species or system hepatitis B virus
Method: as §1

Mice = experiment: Acute toxicity, LD50, intravenous, mice; type: in vivo
Method: as §1

Rats = experiment: Acute toxicity, LD50, intravenous, rats; type: in vivo
Method: as §1

hemoglobin [4] = experiment: Hemoglobin-binding capacity of haptoglobin (polyacrylamide gel thin layer electrophoresis, benzidine staining); settings: maximum addition of hemoglobin with no free hemoglobin observed
rabbits [5] = experiment: Histopathological examination of rabbits after haptoglobin and/or hemoglobin administration; type: in vivo
Description: (§2) Thirty mature rabbits of body weight ranging from 2.3 to 2.9 kg were equally divided into 3 groups (10 rabbits per group), and continuously administered with haptoglobin and/or hemoglobin, and then the survival of the rabbits was observed. At the end of the observation, the survived rabbits were anatomized, and various organs thereof were subjected to histopathological examination.
(§3) A 5% solution of haptoglobin in isotonic sodium chloride solution prepared according to the present invention was continuously administered drop-wise intravenously once a day at a dose of 0.8 g/kg (body weight).
(§4) A 10% solution of hemoglobin in isotonic sodium chloride solution isolated from red blood cells of the rabbit was continuously administered drop-wise intraveneously once a day at a dose of 0.4 g/kg (body weight).
(§5) Hemoglobin and then the haptoglobin of the invention were administered in the same manner and dose in the case of both the first and the second groups.

rabbits [6] = experiment: Survival of rabbits after haptoglobin and/or hemoglobin administration; type: in vivo; settings: fourth day, 10 tested
Description: as §2, §3, §4, §5
On the fourth day of administration, the survival of the rabbits of each group was examined.

patient = experiment: Clinical application to a patient (pelvis fracture, urethra rupture and bleeding shock); type: in vivo, human
Description: An example, in which the haptoglobin prepared in Example 2 was clinically applied to a patient, is illustrated below.
The patient was a person, who had been severely stricken on the left waist with lumber that had fallen down during their work and had been sent to hospital as an emergency case. The diagnosis was pelvis fracture, urethra rupture and bleeding shock. Immediately after hospitalization, the patient was subjected to an operation for urinary tract reconstruction. During the operation, the total amount of bleeding was 7,500 ml, the total amount of blood transfused was 4,200 ml, and the total artificial expander transfused was 4,200 ml. […] The clinical progress of the patient after the operation is shown in the accompanying drawing. […] At this stage, 250 ml of a 5% solution of the haptoglobin prepared according to the present invention in isotonic sodium chloride solution was administered to the patient drop-wise intravenously.

mouse or rat and humans = experiment: Toxicity / adverse effects on injection of the aqueous solution of haptoglobin; type: in vivo, human
[7] = First group: haptoglobin 0.8 g/kg i.v. once a day
[8] = Third group: hemoglobin 0.4 g/kg then haptoglobin 0.8 g/kg i.v. once a day
[9] = 250 ml of a 5% solution, drop-wise intravenously
[10] = Second group: hemoglobin 0.4 g/kg i.v. once a day

- Residual hemoglobin-binding capacity of haptoglobin after heat treatment (hemoglobin [1]; stabilizer amount 20%): 83%
- Residual hemoglobin-binding capacity of haptoglobin after heat treatment (hemoglobin [2]; stabilizer amount 15%): 50%
- Residual hemoglobin-binding capacity of haptoglobin after heat treatment (hemoglobin [2]; stabilizer amount 20%): 75%
Compound: C[C@H](N)C(=O)O [Alanine, alanine]

- Residual hemoglobin-binding capacity of haptoglobin after heat treatment (hemoglobin [1]; stabilizer amount 20%): 72%
- Residual hemoglobin-binding capacity of haptoglobin after heat treatment (hemoglobin [2]; stabilizer amount 15%): 45%
- Residual hemoglobin-binding capacity of haptoglobin after heat treatment (hemoglobin [2]; stabilizer amount 20%): 60%
Compound: OC[C@H]1OC(O)[C@H](O)[C@@H](O)[C@@H]1O (some centres unmarked) [Glucose, glucose]

- Residual hemoglobin-binding capacity of haptoglobin after heat treatment (hemoglobin [1]; stabilizer amount 20%): 92%
- Residual hemoglobin-binding capacity of haptoglobin after heat treatment (hemoglobin [2]; stabilizer amount 2.25%): 20%
- Residual hemoglobin-binding capacity of haptoglobin after heat treatment (hemoglobin [2]; stabilizer amount 5%): 35%
- Residual hemoglobin-binding capacity of haptoglobin after heat treatment (hemoglobin [2]; stabilizer amount 10%): 70%
- Residual hemoglobin-binding capacity of haptoglobin after heat treatment (hemoglobin [2]; stabilizer amount 15%): 95%
- Residual hemoglobin-binding capacity of haptoglobin after heat treatment (hemoglobin [2]; stabilizer amount 20%): 95%
Compound: NCC(=O)O [Glycine, glycine]

Compound: OC[C@@H](O)[C@@H](O)[C@H](O)[C@H](O)CO [Mannitol, mannitol]
- Residual hemoglobin-binding capacity of haptoglobin after heat treatment (hemoglobin [1]; stabilizer amount 20%): 85%
- Residual hemoglobin-binding capacity of haptoglobin after heat treatment (hemoglobin [2]; stabilizer amount 5%): 15%
- Residual hemoglobin-binding capacity of haptoglobin after heat treatment (hemoglobin [2]; stabilizer amount 7%): 40%
- Residual hemoglobin-binding capacity of haptoglobin after heat treatment (hemoglobin [2]; stabilizer amount 10%): 55%
- Residual hemoglobin-binding capacity of haptoglobin after heat treatment (hemoglobin [2]; stabilizer amount 15%): 80%
- Residual hemoglobin-binding capacity of haptoglobin after heat treatment (hemoglobin [2]; stabilizer amount 20%): 85%

Compound: OC[C@@H](O)[C@@H](O)[C@H](O)[C@@H](O)CO [Sorbitol, sorbitol]
- Residual hemoglobin-binding capacity of haptoglobin after heat treatment (hemoglobin [1]; stabilizer amount 20%): 76%

- Residual hemoglobin-binding capacity of haptoglobin after heat treatment (hemoglobin [1]; stabilizer amount 20%): 68%
Compound: OC[C@H]1O[C@@](CO)(O[C@H]2O[C@H](CO)[C@@H](O)[C@H](O)[C@H]2O)[C@@H](O)[C@@H]1O [Sucrose, sucrose]

Compound: Example 1 before treatment: haptoglobin solution of Example 1 before the treatment with the ion exchanger
- Hypotensive activity [3]: 18%

Compound: Example 2 before treatment: haptoglobin solution of Example 2 before the treatment with the ion exchanger
- Hypotensive activity [3]: 12.0%

Compound: Example 2: sterile aqueous haptoglobin solution from Cohn fraction IV, heated with 20% mannitol, purified on GE Cellulose (guanidoethyl cellulose)
- Hypotensive activity [3]: 6.0%
- HB-Ag (HB-Ag): Negative
- LD50 (Mice): ≥ 12000 mg/kg
- LD50 (Rats): ≥ 10000 mg/kg
- Hemoglobin-binding capacity (hemoglobin [4]): 0.68 mg hemoglobin/mg haptoglobin

Compound: Example 3 before treatment: haptoglobin solution of Example 3 before the treatment with the ion exchanger
- Hypotensive activity [3]: 24.0%

Compound: Experiment 4: haptoglobin solution by the method of Example 1 with CM-cellulose, non-adsorbed fraction, 0.05 M phosphate buffer (pH 7.0)
- Hypotensive activity [3]: 9.8%
- HB-Ag (HB-Ag): Negative
- LD50 (Mice): ≥ 11700 mg/kg
- LD50 (Rats): ≥ 10500 mg/kg
- Hemoglobin-binding capacity (hemoglobin [4]): 0.61 mg hemoglobin/mg haptoglobin

Compound: Experiment 5: haptoglobin solution by the method of Example 1 with CM-Sephadex, non-adsorbed fraction, 0.05 M phosphate buffer (pH 7.0)
- Hypotensive activity [3]: 9.0%
- HB-Ag (HB-Ag): Negative
- LD50 (Mice): ≥ 11700 mg/kg
- LD50 (Rats): ≥ 10500 mg/kg
- Hemoglobin-binding capacity (hemoglobin [4]): 0.62 mg hemoglobin/mg haptoglobin

Compound: haptoglobin
- Histopathology (rabbits [5]; First group: haptoglobin for 14 days): no change was observed in its kidney, spleen and lung, and only slight narrowing of sinusoid and deposition of iron were observed in the liver
- Prevention of renal troubles caused by hemoglobin; adverse effects (conclusion) (rabbits [5]; rabbits, Example 6): does not substantially bring about any adverse effects and has the excellent effect of preventing renal troubles caused by hemoglobin
- Number of dead (rabbits [6]; [7]): 0
- Number of survival (rabbits [6]; [7]): 10
- Number of dead (rabbits [6]; [8]): 1
- Number of survival (rabbits [6]; [8]): 9
- Residual hemoglobin-binding capacity of haptoglobin after heat treatment (hemoglobin [1]; no stabilizer (None)): 0%
- Hemoglobin-binding capacity after heat treatment in the absence of stabilizer (hemoglobin [2]; absence of stabilizer): lost its hemoglobin-binding capacity
- Activity of haptoglobin after heat treatment (hemoglobin [2]; aqueous solution without stabilizer, 60° C. for 10 hours): substantially nil
- Residual hemoglobin-binding capacity of haptoglobin after heat treatment (hemoglobin [2]; no stabilizer (None)): ≈ 0%
- Haptoglobin activity maintained after heat treatment (hemoglobin [2]; with stabilizer, 60° C. and 10 hours): 95%
- Amount of urine (patient; [9]): increase
- General symptoms of the patient (patient; [9]): gradually improved
- Time to disappearance of blood pigments from the urine (patient; 250 ml of a 5% solution, drop-wise intravenously, person): blood pigments disappeared from the urine within several hours after haptoglobin administration
- Adverse effect due to the administration (patient; even 6 months after recovery): No adverse effect
- Adverse effect (mouse or rat and humans; 5% solution in isotonic sodium chloride, drop-wise intravenously, human adult): no adverse effect is observed at all
- Toxicity (mouse or rat and humans; injected in large quantities into mouse, rat, humans): extremely low
- Adverse effects on injection in large quantities (mouse or rat and humans; mouse or rat and humans): no adverse effects

Compound: hemoglobin
- Histopathology (rabbits [5]; Second group: hemoglobin for 6 days): marked deposition of iron was observed from proximal tuble to collecting tube of the kidney, thinning of renal epithelial cells was observed, propagation of reticular cells was observed in the spleen, and marked narrowing of sinusoid and deposition of iron were observed in the liver
- Number of dead (rabbits [6]; [10]): 7
- Number of survival (rabbits [6]; [10]): 3
